The target in assay [1] is switchable CAR (sCAR) with anti-PNE single chain variable fragment. Put plainly: flow cytometry, PNE-FITC titrated on sCAR T cells.
Assay [2] addresses T1, human full length aminopeptidase N (APN, aka CD13) (human, UniProt P15144 2-967).
T1 construct: whole, on cells
The experiment in a line: flow cytometry on THP-1 cells (endogenous CD13).

The target of assay [3] is T1, human full length aminopeptidase N …. Put plainly: flow cytometry on patient-derived AML cells (AML2844).
For assay [4], the target named is T2, human full length CDH17, also called cadherin 17 or liver-intestine cadherin (human, UniProt Q12864 23-832).
T2 sequence (looked up): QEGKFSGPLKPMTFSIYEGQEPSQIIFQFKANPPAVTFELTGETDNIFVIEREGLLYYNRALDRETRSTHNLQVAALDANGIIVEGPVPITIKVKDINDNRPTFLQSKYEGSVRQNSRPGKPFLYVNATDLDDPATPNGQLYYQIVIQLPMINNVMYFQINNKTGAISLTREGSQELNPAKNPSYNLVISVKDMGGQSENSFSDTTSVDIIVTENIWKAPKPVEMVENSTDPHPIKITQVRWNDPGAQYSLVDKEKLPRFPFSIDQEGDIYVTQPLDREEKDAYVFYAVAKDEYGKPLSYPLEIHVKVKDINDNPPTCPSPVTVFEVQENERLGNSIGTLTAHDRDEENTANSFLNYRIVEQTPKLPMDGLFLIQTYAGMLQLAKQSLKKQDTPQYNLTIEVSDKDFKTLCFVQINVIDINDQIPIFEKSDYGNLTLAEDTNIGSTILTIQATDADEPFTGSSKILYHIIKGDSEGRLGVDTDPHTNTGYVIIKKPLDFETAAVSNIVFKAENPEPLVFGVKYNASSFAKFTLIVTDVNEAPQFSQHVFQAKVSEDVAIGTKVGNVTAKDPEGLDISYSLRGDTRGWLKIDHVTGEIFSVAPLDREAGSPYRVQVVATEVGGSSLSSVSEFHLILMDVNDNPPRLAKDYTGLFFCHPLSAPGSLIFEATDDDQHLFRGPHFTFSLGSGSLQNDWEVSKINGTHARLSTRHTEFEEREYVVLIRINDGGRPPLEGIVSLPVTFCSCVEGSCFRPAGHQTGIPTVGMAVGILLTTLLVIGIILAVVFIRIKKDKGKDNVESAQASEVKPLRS
Put plainly: cell-based or functional assay.

The next assay deals with T3, mouse CDH17 (mouse, UniProt Q9R100 26-827).
T3 construct: whole, on cells
T3 sequence (looked up): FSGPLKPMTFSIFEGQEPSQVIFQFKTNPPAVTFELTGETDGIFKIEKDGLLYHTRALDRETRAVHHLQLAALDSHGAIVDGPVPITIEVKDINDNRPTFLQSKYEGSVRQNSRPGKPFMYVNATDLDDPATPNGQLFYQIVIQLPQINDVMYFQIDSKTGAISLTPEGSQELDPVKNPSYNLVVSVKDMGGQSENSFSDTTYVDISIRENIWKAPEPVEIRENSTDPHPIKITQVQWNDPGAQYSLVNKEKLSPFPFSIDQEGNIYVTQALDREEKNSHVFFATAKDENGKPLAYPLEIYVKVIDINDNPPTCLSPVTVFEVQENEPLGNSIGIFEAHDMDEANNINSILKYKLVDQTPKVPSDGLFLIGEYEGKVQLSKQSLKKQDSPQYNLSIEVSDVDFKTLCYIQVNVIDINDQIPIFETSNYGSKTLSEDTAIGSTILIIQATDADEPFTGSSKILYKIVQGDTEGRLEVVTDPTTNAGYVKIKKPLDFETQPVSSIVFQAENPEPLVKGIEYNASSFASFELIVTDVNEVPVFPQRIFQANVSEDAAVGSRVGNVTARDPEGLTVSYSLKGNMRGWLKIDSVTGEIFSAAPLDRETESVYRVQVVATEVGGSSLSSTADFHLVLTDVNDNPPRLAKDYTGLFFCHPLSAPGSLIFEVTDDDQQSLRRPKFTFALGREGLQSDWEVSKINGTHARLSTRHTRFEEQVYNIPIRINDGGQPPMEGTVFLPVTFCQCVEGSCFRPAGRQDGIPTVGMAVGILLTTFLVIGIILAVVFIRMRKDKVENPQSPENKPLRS
The experiment in a line: flow cytometry, VHH1-expressing phage on HEK293T cells transiently transfected with CDH17 cDNA. Here is the method: (§1) Next, to identify the protein antigen of the isolated VHH1 nanobody, ˜3000 human cell membrane protein cDNAs were prepared and transfected into HEK293T cells individually, followed by flow cytometry analysis with the VHH1-expressing phage and FITC-labeled secondary antibody against phage M13 protein (FIG. 12A). […] Human or mouse CDH17 cDNA was transiently transfected into HEK293T cells, followed by flow cytometry analysis with the VHH1-expressing phage and FITC-labeled secondary antibody against phage M13 protein.
A general note: A flow cytometer gives signals particle by particle.

Assay [5] addresses T2, human full length CDH17, also called …. Put plainly: flow cytometry, VHH1-expressing phage on HEK293T cells transfected with membrane protein cDNAs. Here is the method: as §1

As a reminder, the EC50 is the concentration at which the effect is half-maximal. High values mean lower potency in that assay, low ones higher potency in that assay. A word on the Kd: it is a measure of binding affinity in units of concentration.

T1 sequence (P15144 2-967): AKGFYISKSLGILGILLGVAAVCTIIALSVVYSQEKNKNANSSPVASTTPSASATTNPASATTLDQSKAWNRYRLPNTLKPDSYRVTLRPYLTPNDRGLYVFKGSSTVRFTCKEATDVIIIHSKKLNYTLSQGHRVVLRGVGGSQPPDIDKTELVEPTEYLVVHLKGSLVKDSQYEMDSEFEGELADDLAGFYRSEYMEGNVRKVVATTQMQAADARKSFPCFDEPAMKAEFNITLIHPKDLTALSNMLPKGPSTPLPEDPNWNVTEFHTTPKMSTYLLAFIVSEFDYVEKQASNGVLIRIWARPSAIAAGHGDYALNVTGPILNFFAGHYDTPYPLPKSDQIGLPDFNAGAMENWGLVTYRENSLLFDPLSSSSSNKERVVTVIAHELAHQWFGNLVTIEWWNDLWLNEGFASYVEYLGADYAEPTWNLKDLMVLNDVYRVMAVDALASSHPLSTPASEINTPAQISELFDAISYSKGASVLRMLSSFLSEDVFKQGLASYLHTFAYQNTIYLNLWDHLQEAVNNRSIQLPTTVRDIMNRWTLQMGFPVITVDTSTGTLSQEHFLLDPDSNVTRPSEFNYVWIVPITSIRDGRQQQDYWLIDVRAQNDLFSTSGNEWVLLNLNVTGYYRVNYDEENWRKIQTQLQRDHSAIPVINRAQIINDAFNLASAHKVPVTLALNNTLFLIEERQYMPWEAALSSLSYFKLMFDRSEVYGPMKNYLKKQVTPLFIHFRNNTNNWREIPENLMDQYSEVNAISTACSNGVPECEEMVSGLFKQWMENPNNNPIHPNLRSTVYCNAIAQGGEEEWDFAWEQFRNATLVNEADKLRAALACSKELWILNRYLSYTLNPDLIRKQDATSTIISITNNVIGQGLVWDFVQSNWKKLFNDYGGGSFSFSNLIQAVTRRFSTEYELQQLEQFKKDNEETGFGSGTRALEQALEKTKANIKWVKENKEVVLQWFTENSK

Regarding FITC-labeled PNE-peptide, the 50% effective concentration (EC50) in assay [1] was determined as 1 nM.

B1: Nb157-C-PNE (VHH)
VHH: QVQLQESGGGLVQPGGSLSLSCTASGFTFSSYSMAWVRQAPGKGPEWVSGIYPSDGKTRYADFVKGRFSISRDNAKNMLYLQMNNLEPEDTALYYCARGITGLGPRGQGTQVTVSS
notes: also called VHH157-C-PNE; Nb157 with C-terminal PNE; not shown: PNE, a fourteen amino acid peptide
The molecule B1 showed a Kd in assay [2] of roughly 35 nM.

B2: Nb157 (VHH)
VHH: B1 VHH
notes: Llama nanobody from the THP-1-immunised library; also called VHH157; VH157
In assay [2], B2 returned a Kd of roughly 35 nM.

B3: Nb157-N-PNE (VHH)
VHH: B1 VHH
notes: also called VHH157-N-PNE; Nb157 with N-terminal PNE; not shown: PNE, a fourteen amino acid peptide
For B3, the Kd in assay [2] is roughly 90 nM.

B4: Nb163 (VHH)
VHH: QVQLQESGGGLVQPGGSLRLSCVPSGFTFDGYLIGWFRQAPGSERKAVSCISVNGDRTNYADSVKGRFTISRDNAKNTVYLQMNSLRPNDTAIYYCATRRGNRLYNNNCPYFEYGTWGQGTQVTVSS
notes: also called VHH163; VH163
Consider B4, for which the binding result in assay [3] is “binds”.

B5: VLV-DM1 (VHH, not shown: small tags and cut ends)
VHH 1: QVQLQESGGGLVQPGGSTRLSCVSSRTFSYYDMGWFRQAPGKEREFVALLSWNGENAEYSDSVMGRFTVSRGNTQNSVNLQMNNLKPEDTGIYYCAVTHGGARSVRSWGQGTQVTVSS
VHH 2: B5 VHH 1
modifications: Mertansine (DM1) is conjugated to the VLV protein; the residues, number of drugs and chemical linker are not stated. In reality one polypeptide: the two VHH1 units are joined by a peptide linker whose letters are not given.
B5: the “IC50, in vitro killing of BON cells (MTT assay)” value in assay [4] turned out to be 1.2 nM.

B6: VHH1 nanobody (VHH)
VHH: B5 VHH 1
notes: From a naive llama phage library panned on BON cells
Regarding B6, the binding result (in the assay with mouse CDH17; in assay [5]) was “binds” each time.

Values taken from patent US20260015406A1 (University of Pennsylvania, published 2026).
